From US20260265348A1 (HEIDELBERG IMMUNOTHERAPEUTICS, published 2026) come the findings set out here.

Experiment [1] deals with T1, recombinant HSV-1F glycoprotein B (gB) ectodomain (aa 30-729), trimeric (HSV-1 strain F, UniProt P06436 30-729).
T1 construct: also called recombinant HSV-1 gB; HSV-1F gB
Briefly: BLI (Octet), biotinylated gB on streptavidin tips, IgG in solution; full IgG, not Fab.

Experiment [2] has as its target T2, HSV-1F gB R304Q (HDIT101-resistance mutant) (HSV-1 strain F, UniProt P06436 30-903).
T2 construct: also called gB of HSV-1FHDIT101R
The experiment is described as follows: flow cytometry of HEK293T cells transfected with a gB plasmid, FITC anti-human Fc secondary antibody, iMFI. A general note: In flow cytometry, cells or beads pass a laser one at a time.

Experiment [3] concerns the target T1, recombinant HSV-1F glycoprotein B (gB) …. The experiment is described as follows: BLI (Octet), Fab, Kd=kdis/ka. A general note: In BLI a coated tip is dipped into the sample, and binding shifts an interference pattern.
Experiment [4] shares this target. Briefly: BLI (Octet), biotinylated gB on streptavidin tips, Fab dilution series, global 1:1 fit.
Experiment [5] shares this target. Briefly: BLI (Octet), biotinylated gB on streptavidin tips, Fab dilution series, global 1:1 fit; Fab; HSV-1F gB.
The target of the next experiment is HSV-1F gB D199A (HSV-1 strain F, UniProt P06436 30-903). Briefly: cell-based or functional assay.
Another experiment addresses HSV-1F gB K204A (HSV-1 strain F, UniProt P06436 30-903). Briefly: cell-based or functional assay.
For experiment [6], the target named is T2, HSV-1F gB R304Q (HDIT101-resistance …). The experiment is described as follows: cell-based or functional assay.
The next experiment concerns the target HSV-1F gB K320A (HSV-1 strain F, UniProt P06436 30-903). The experiment is described as follows: cell-based or functional assay.
The next experiment has as its target HSV-1F gB Y326A (HSV-1 strain F, UniProt P06436 30-903). The experiment is described as follows: cell-based or functional assay.
The next experiment deals with HSV-1F gB R335A (HSV-1 strain F, UniProt P06436 30-903). The experiment is described as follows: cell-based or functional assay.
Experiment [7] deals with HSV-1F gB R335Q (HDIT102(H4)-resistant escape mutant) (HSV-1 strain F, UniProt P06436 30-903). The experiment is described as follows: cell-based or functional assay.
Experiment [8] concerns the target glycoprotein B (gB) of HSV-1 strain F, full length, wild type (HSV-1 strain F, UniProt P06436 30-903). Briefly: cell-based or functional assay.
The target of experiment [9] is glycoprotein B (gB) of HSV-2 strain G, full length, wild type (HSV-2 strain G). The experiment is described as follows: cell-based or functional assay.

B1: HDIT101, humanized IgG1 MAb2c (antibody, V domains shown)
VH: QVTLKESGPALVKPTQTLTLTCTFSGFSLSTSGMSVGWIRQPPGKALEWLAHIWWNNDKYYKPALKSRLTISKDTSKNQVVLTMTNMDPVDTATYYCARIYYGYRPYAMDYWGQGTLVTVSS
VL: DIVMTQTPLSLPVTPGEPASISCRSSQSIVHSNGNTYLEWYLQKPGQSPQLLIYKVSNRFSGVPDRFSGSGSGTDFTLKISRVEAEDVGVYYCFQGSHVPWSFGQGTKVEIKR
notes: also called MAb hu2c; HDIT101 IgG
Usually koff stands for the first-order rate constant of dissociation. For the molecule B1, the koff in experiment [1] was roughly 0.0011 s⁻¹. For the same molecule, the binding result in experiment [2] is reported as “no binding”.

B2: HDIT101 Fab (Fab, V domains shown)
VH: QVTLKESGPALVKPTQTLTLTCTFSGFSLSTSGMSVGWIRQPPGKALEWLAHIWWNNDKYYKPALKSRLTISKDTSKNQVVLTMTNMDPVDTATYYCARIYYGYRPYAMDYWGQGTLVTVSS
VL: DIVMTQTPLSLPVTPGEPASISCRSSQSIVHSNGNTYLEWYLQKPGQSPQLLIYKVSNRFSGVPDRFSGSGSGTDFTLKISRVEAEDVGVYYCFQGSHVPWSFGQGTKVEIKR
As usually defined, the Kd is the constant that tells how readily two partners part at equilibrium. By kon is commonly meant a measure of how fast the partners come together. For the molecule B2, the Kd in experiment [3] turned out to be 7.26 nM. Moreover, in experiment [4], the koff came to 0.00313 s⁻¹. In addition, in experiment [5], the kon stood at 435000 M⁻¹ s⁻¹.

B3: HDIT102(H4), fully human IgG1 anti-HSV gB antibody (antibody, V domains shown)
VH: EVQLVQSGAEVKTPGASVRVSCKASGHTFRTFDINWVRQAAGQGLEWMGWMSPNSGNTGYARQFQGRVTMTRNISANTAYMELRGLRFDDTAVYYCARGPGSTGTTGSMDVWGQGTTVTVSS
VL: QAGLTQPPSVSVAPGKTARISCGGNNIGSKSVHWYQQKPGQAPVLVIYYDSDRPSGIPERFSGSNSGNTATLTISRVEAGDEADYYCQVWDSGSVVFGGGTKLTVLG
For B3, the “inhibition of gB-mediated cell-cell fusion by HDIT102(H4) (75 µg/ml), relative to wild type gB” value with HSV-1F gB D199A is 32.9 % of WT; with HSV-1F gB K204A, 57.3 % of WT; in [6], 92.3 % of WT; with HSV-1F gB K320A it was 90.1 % of WT; with HSV-1F gB Y326A, 72.7 % of WT; with HSV-1F gB R335A, 19.3 % of WT. Moreover, the “inhibition of gB-mediated cell-cell fusion by HDIT102(H4) (75 µg/ml), relative to wild type gB” value in [7] was 18.8 % of WT. In addition, the “inhibitory concentration for 50% neutralization (IC50) of 100 TCID50 cell-free HSV-1F on Vero cells” value in experiment [8] came out at 25.5 nM. Also, in [9], the “inhibitory concentration for 50% neutralization (IC50) of 100 TCID50 cell-free HSV-2G on Vero cells” value amounted to 12.5 nM.

B4: HDIT102(H4) Fab (Fab, V domains shown)
VH: EVQLVQSGAEVKTPGASVRVSCKASGHTFRTFDINWVRQAAGQGLEWMGWMSPNSGNTGYARQFQGRVTMTRNISANTAYMELRGLRFDDTAVYYCARGPGSTGTTGSMDVWGQGTTVTVSS
VL: QAGLTQPPSVSVAPGKTARISCGGNNIGSKSVHWYQQKPGQAPVLVIYYDSDRPSGIPERFSGSNSGNTATLTISRVEAGDEADYYCQVWDSGSVVFGGGTKLTVLG
notes: also called Fab HDIT102; Fab HDIT102 (H4)
Take B4: in experiment [3], the Kd was 0.0895 nM. In addition, in [5], the koff worked out at 8.85e-05 s⁻¹ and the kon amounted to 992000 M⁻¹ s⁻¹.
